According to US7625718B2, “SVCT2 transporters expressed in blood brain barrier cells” (XenoPort, Inc., priority 2005, dated 2009):

Test system: T1, O=C1O[C@H]([C@@H](O)CO)C(O)=C1O
T1 construct: expressed in transfected cells; host or cells: HEK-TREx cells, tetracycline-induced
Experiment: hSVCT2 direct uptake assay in HEK-TREx-hSVCT2 cells (LC-MS-MS)
Format: cell-based, human
Settings: other: HEK-TREx-hSVCT2 cells induced to express hSVCT2
Method: A modified direct uptake assay was developed to determine the ability of test compounds to be transported into HEK-TREx cells induced to over-express hSVCT2. Four concentrations (bracketing the affinity as measured by competition assays) per compound were routinely tested. Non-specific uptake was determined by measuring the uptake into cells not induced to express the transporter (“no tet”).
The direct uptake assays were prepared as follows: Compounds were prepared for assay by diluting a 100 mM stock concentration (in DMSO or water, depending on compound solubility) to the appropriate working concentration. Typically, four concentrations bracketing the IC50 were tested. The highest test concentration for each compound was made in an Eppendorf tube and diluted into HBSS. The samples were robustly vortexed and centrifuged for 10 minutes at 13,200 rpm to spin down any precipitate. The supernatant from these samples (˜150 μl/well) was carefully removed and placed into six wells of row A (cmpd 1: A1-6; cmpd 2: A7-12) or row E (cmpd 3: E1-6; cmpd 4: E7-12) of a 96-well polypropylene “compound” plate. Three additional 2-fold dilutions were made in the subsequent rows (B-D or […]) in HBSS. […]

Q: hSVCT2 (Homo sapiens) was tested. Which Km did it give?
A: 14 µM
